Results on 24 molecules are retold here after EP4703388A1 (Jiangsu Hengrui Pharmaceuticals Co., Ltd., dated 2024).

Numbering of substitutions follows the chain as printed.

In assay [1] the target is T1, human tissue factor (TF) on MDA-MB-231, NCI-H358 and HCT116 cells (human, UniProt P13726 33-295).
T1 construct: whole, on cells; also called TF antigen; CD142
Description: flow cytometry on MDA-MB-231 cells.

Assay [2] deals with T2, human TF ECD-His (hTF-his) (human, UniProt P13726 33-251).
T2 construct: also called bio-hTF-his; human TF-His protein
As to the kind of experiment: SPR Biacore T200, antibody on Protein A chip, TF-His as analyte, 1:1 model.

Assay [3] deals with T3, cyno TF ECD-His (cTF-his) (monkey (cyno)).
T3 construct: also called bio-cTF-his; monkey TF-His protein
T3 chain: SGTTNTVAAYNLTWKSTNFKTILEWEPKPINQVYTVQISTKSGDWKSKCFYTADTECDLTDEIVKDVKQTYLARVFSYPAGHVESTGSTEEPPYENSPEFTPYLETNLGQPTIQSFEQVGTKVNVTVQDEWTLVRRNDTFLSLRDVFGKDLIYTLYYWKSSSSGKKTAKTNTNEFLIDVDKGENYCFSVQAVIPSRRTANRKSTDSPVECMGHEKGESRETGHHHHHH
The description is as above.

B1: hu310-10 (antibody, human IgG1, kappa, V domains shown)
VH: EVQLVQSGAEVKKPGASVKVSCKASGYSFTGYYMNWVRQAPGQGLEWMGEINPSTGGSTYNQKFKARVTLTVDQSTNTAYMELSSLRSEDTAVYYCARRELGGPFGYWGQGTTVTVSS
VL: SIVMTQSPDSLAVSLGERATINCKASQSVSNGIAWYQQKPGQSPKLLIYFASNRYTGVPDRFSGSGYGTDFTLTISSLQAEDVAVYYCQQDYSSPWTFGGGTKVEIKR
In turn, B1 displayed an EC50 in assay [1] of 1.33 nM.

B2: hu310-5 (antibody, human IgG1, kappa, V domains shown)
VH: B1 VH with L70M, N77S, A79V
VL: SIQMTQSPSSLSASVGDRVTITCKASQSVSNGIAWYQQKPGKSPKLLIYFASNRYTGVPSRFSGSGYGTDFTFTISSLQPEDIATYYCQQDYSSPWTFGGGTKVEIKR
Take B2: the EC50 in assay [1] worked out at 1.55 nM.

B3: hu310-6 (antibody, human IgG1, kappa, V domains shown)
VH: B1 VH with L70M, N77S, A79V
VL: B2 VL with N31Q
For B3, a half-maximal effect in assay [1] (EC50) was put at 2.56 nM.

B4: hu310-8 (antibody, human IgG1, kappa, V domains shown)
VH: B1 VH with L70M, N77S, A79V
VL: B2 VL with N31T
Regarding B4, in assay [1], a half-maximal response (EC50) required 1.73 nM.

B5: hu310-4 (antibody, human IgG1, kappa, V domains shown)
VH: B1 VH with L70M, N77S, A79V
VL: B2 VL with S1D, S43A, Y67S
The molecule B5 had a concentration for a half-maximal effect (EC50) in assay [1] of 2.11 nM.

B6: hu310-7 (antibody, human IgG1, kappa, V domains shown)
VH: B1 VH with L70M, N77S, A79V
VL: B2 VL with N31S
B6 yielded an EC50 in assay [1] of 2.08 nM.

B7: hu310-9 (antibody, human IgG1, kappa, V domains shown)
VH: B1 VH
VL: B1 VL with S1D, S43P, Y67S
B7: in assay [1], the midpoint of the response, the EC50, lay at 1.97 nM.

B8: hu310-11 (antibody, human IgG1, kappa, V domains shown)
VH: B1 VH
VL: B1 VL with D9K, S10F, L73F
Molecule B8 yielded an EC50 in assay [1] of 1.76 nM.

B9: hu310-3 (antibody, human IgG1, kappa, V domains shown)
VH: B1 VH with L70M, N77S, A79V
VL: B1 VL with D9K, S10F, L73F
In assay [1], B9 showed an EC50 of 1.83 nM.

B10: hu67-1 (antibody, human IgG1, kappa, V domains shown)
VH: EVTLKQSGPVLVKPTQTLTLTCTVSGFSLTNYGVNWIRQPPRKALEWLAVIWSRGNTDYNAAFISRLTISKDTSKSQVVLKMTNMDPVDTATYYCARKDAVVATDALDYWGQGTTVTVSS
VL: DIVMTQSPKSLAVSLGERATINCKASQDVSTAVAWYQQKPGQPPKLLIYSTSYRYTGVPDRFSGSGSGTDFTLTISSLQAEDVAVYYCQQHYSTPYTFGGGTKVEIKR
B10: in assay [2], the Kd was determined as 13.6 nM, the koff was 0.000585 s⁻¹ and the kon stood at 42900 M⁻¹ s⁻¹. In assay [3], this molecule yielded a Kd of 14.8 nM, a koff of 0.000358 s⁻¹ and an association rate constant (kon) of 24100 M⁻¹ s⁻¹.

B11: hu67-6 (antibody, human IgG1, kappa, V domains shown)
VH: B10 VH with A44G, A49G, T73N
VL: B10 VL with P43S, L73F
As for B11, in assay [2], the Kd was found to be 21.7 nM, the dissociation rate constant (koff) worked out at 0.000652 s⁻¹ and the kon came out at 30000 M⁻¹ s⁻¹. Moreover, in assay [3], binding was put at a Kd of 14.3 nM, the koff turned out to be 0.000428 s⁻¹ and the kon was 29900 M⁻¹ s⁻¹.

B12: hu67-5 (antibody, human IgG1, kappa, V domains shown)
VH: B10 VH
VL: B10 VL with P43S, L73F
In assay [2], B12 returned a Kd of 17.7 nM, a koff of 0.000582 s⁻¹ and a kon of 32800 M⁻¹ s⁻¹. For the same molecule, in assay [3], the Kd was determined as 15.1 nM, the koff worked out at 0.00039 s⁻¹ and the kon turned out to be 25800 M⁻¹ s⁻¹.

B13: hu67-2 (antibody, human IgG1, kappa, V domains shown)
VH: B10 VH with A44G, A49G, T73N
VL: B10 VL
In the case of B13, in assay [2], binding was characterised by a dissociation constant (Kd) of 15.8 nM, the koff turned out to be 0.000673 s⁻¹ and the kon worked out at 42600 M⁻¹ s⁻¹. In assay [3], this molecule had a Kd of 12.7 nM, a koff of 0.000429 s⁻¹ and a kon of 33700 M⁻¹ s⁻¹.

B14: hu67-12 (antibody, human IgG1, kappa, V domains shown)
VH: EVQLQESGPGLVKPSQTLSLTCTVSGFSLTNYGVNWIRQPPRKGLEWIGVIWSRGNTDYNAAFISRVTISKDNSKSQVSLKLSSVTAADTAVYYCARKDAVVATDALDYWGQGTTVTVSS
VL: DIQMTQSPSSLSASVGDRVTITCKASQDVSTAVAWYQQKPGKAPKLLIYSTSYRYTGVPSRFSGSGSGTDFTFTISSLQPEDIATYYCQQHYSTPYTFGGGTKVEIKR
In assay [2], B14 gave a Kd of 18.7 nM, a koff of 0.000731 s⁻¹ and a kon of 39200 M⁻¹ s⁻¹. Moreover, in assay [3], binding was characterised by a dissociation constant (Kd) of 14 nM, the koff was 0.000468 s⁻¹ and the kon stood at 33400 M⁻¹ s⁻¹.

B15: hu67-3 (antibody, human IgG1, kappa, V domains shown)
VH: B14 VH with R42G, N73T, S76N
VL: B10 VL
With B15, in assay [2], the Kd was 14.2 nM, the koff was 0.000663 s⁻¹ and the kon is 46600 M⁻¹ s⁻¹. Besides, in assay [3], the Kd came out at 13.5 nM, the koff was determined as 0.000431 s⁻¹ and the kon was 31900 M⁻¹ s⁻¹.

B16: hu67-9 (antibody, human IgG1, kappa, V domains shown)
VH: B10 VH
VL: B14 VL
In assay [2], B16 gave a Kd of 16.4 nM, a koff of 0.000564 s⁻¹ and an on-rate constant (kon) of 34500 M⁻¹ s⁻¹. For the same molecule, in assay [3], binding was put at a Kd of 10.8 nM, the koff amounted to 0.000351 s⁻¹ and the kon was found to be 32400 M⁻¹ s⁻¹.

B17: hu67-10 (antibody, human IgG1, kappa, V domains shown)
VH: B10 VH with A44G, A49G, T73N
VL: B14 VL
For the molecule B17, in assay [2], the Kd came to 15.2 nM, the koff came out at 0.000594 s⁻¹ and the kon was 39200 M⁻¹ s⁻¹. For the same molecule, in assay [3], binding was characterised by a dissociation constant (Kd) of 8.9 nM, the dissociation rate constant (koff) came out at 0.000356 s⁻¹ and the kon was determined as 40000 M⁻¹ s⁻¹.

B18: hu67-8 (antibody, human IgG1, kappa, V domains shown)
VH: B14 VH
VL: B10 VL with P43S, L73F
For the molecule B18, in assay [2], the Kd turned out to be 17.1 nM, the koff was 0.000668 s⁻¹ and the kon was found to be 39000 M⁻¹ s⁻¹. For the same molecule, in assay [3], the Kd was found to be 13.7 nM, the koff turned out to be 0.000446 s⁻¹ and the kon stood at 32500 M⁻¹ s⁻¹.

B19: hu67-7 (antibody, human IgG1, kappa, V domains shown)
VH: B14 VH with R42G, N73T, S76N
VL: B10 VL with P43S, L73F
B19: in assay [2], binding was put at a Kd of 14.3 nM, the koff stood at 0.000584 s⁻¹ and the kon worked out at 40800 M⁻¹ s⁻¹. In assay [3], this molecule showed a Kd of 10.5 nM, an off-rate (koff) of 0.00036 s⁻¹ and a kon of 34200 M⁻¹ s⁻¹.

B20: hu67-15 (antibody, human IgG1, kappa, V domains shown)
VH: B14 VH with R42G, N73T, S76N
VL: B14 VL with P8H, S9K, S10F, A43S
In assay [2], B20 registered a Kd of 19.1 nM, a koff of 0.000638 s⁻¹ and a kon of 33400 M⁻¹ s⁻¹. Besides, in assay [3], the Kd is 13.4 nM, the koff stood at 0.000419 s⁻¹ and the kon turned out to be 31200 M⁻¹ s⁻¹.

B21: hu67-13 (antibody, human IgG1, kappa, V domains shown)
VH: B10 VH
VL: B14 VL with P8H, S9K, S10F, A43S
Turning to B21, in assay [2], the Kd came out at 19 nM, the koff was 0.000577 s⁻¹ and the kon is 30400 M⁻¹ s⁻¹. In assay [3], this molecule gave a Kd of 10.9 nM, a koff of 0.000344 s⁻¹ and a kon of 31500 M⁻¹ s⁻¹.

B22: hu67-16 (antibody, human IgG1, kappa, V domains shown)
VH: B14 VH
VL: B14 VL with P8H, S9K, S10F, A43S
With B22, in assay [2], the affinity, expressed as Kd, was 19.2 nM; the koff stood at 0.000702 s⁻¹; the kon was 36500 M⁻¹ s⁻¹. In assay [3], this molecule yielded a Kd of 14.8 nM, a koff of 0.000478 s⁻¹ and a kon of 32200 M⁻¹ s⁻¹.

B23: hu10H10-1 (antibody, V domains shown)
VH: EVQLVQSGAEVKKPGASVKVSCKASGYTFITYWIEWVRQRPGQGLEWMGDILPGSGSTNYNENFKGRVTFTADTSTSTVYMQLSSLRSEDTAVYYCARSGYYGNSGFAYWGQGTLVTVSS
VL: DIQMTQSPSSLSASVGDRVTITCKSSQSLLSSGNQKNYLTWYQQKPGKAPKLLIYWASTRESGVPSRFSGSGSGTDFTLTISSLQPEDFATYYCQNDYTYPLTFGQGTKLEIK
notes: H1+L1; Full-length IgG
For B23, the EC50 in assay [1] turned out to be 2.05 nM.

B24: hu10H10-19 (antibody, V domains shown)
VH: B23 VH
VL: B23 VL with T103S
notes: H1+L4; Full-length IgG
The molecule B24 gave an EC50 in assay [1] of 2.35 nM.
